We go through 41 sequences from the nanobody polyreactivity screen of Harvey et al. (2022).

A short description of this series: yeast display, Sf9 membrane polyspecificity reagent, FACS + sequencing; frameworks hold sequencing errors. Put shortly: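 After 36–48 hours of galactose induction, yeast (Saccharomyces cerevisiae BJ5465) displaying a synthetic nanobody library were stained at 4 °C for 1 hour with 10% biotinylated, detergent-solubilized Sf9 membrane reagent. Streptavidin microbeads enriched the stained cells before FACS sorting into low and high (top ~1%) gates on anti-HA and streptavidin fluorescence. Each clone's polyreactivity label reflects its gate of origin.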
In the case of “QVQLVESGGGLVQAGGSLRLSCAASGSIFLPYAMGWYRQAPGKERELVAAITRRGTSTYYADSVKGRFTISRDNAKNTVYLQMNSLKPEDTAVYYCAAEIKYWYSAYAYGYWGQGTQVTVSS”, the “polyreactivity (PSR sort gate)” value is listed as “high polyreactivity”.

With “QVQLVESGGGLVQAGGSLRLSCAASGSIFGRYGMGWYRQAPGKERELVAAITSGTRTNYADSVKGRFTISRDNAKTTVYLQMNSLKPEDTAVYYCNALRLRGNYEYGYWGQGTQVTVSS”, the “polyreactivity (PSR sort gate)” value is given as “low polyreactivity”.

Regarding “QVQLVESGGGLVQAGGSLRLTCAASGIIFRGYVMAWYRQAPGKERELVAAISTSGGRTSYADSVKGRFTISRDNAKNTVYLQMNSLKPEDTAVYYCKTRVTGNRLGYYYWGQGTQVTVSS”, the “polyreactivity (PSR sort gate)” value is listed as “high polyreactivity”.

Turning to “QVQLVESGGGLVQAGGSLRLSCAASGIIFYSYAMGWYRQAPGKERELVAAISRRGTSTFYADSVKGRFTISRDNAKNTVYLQMNSLKPEDTAVSYCNARYKYYRGSGMDSWGQGTQVTVSS”, the “polyreactivity (PSR sort gate)” value is “high polyreactivity”.

In the case of “QVQLVESGGGLVQAGGSLRISCAASGRTFWKYVMGWYRQAPGKEMELVAVISRPAGSTYYADSVKGRFTISRDNAKNTVYLQRNSLKPEDTAVYYCDKRPKNKPVLGDYDHWGQGTQVTVSS”, the “polyreactivity (PSR sort gate)” value was “low polyreactivity”.

Turning to “QVQLVESGGGLVQAGGSLRLTCAASGSTFYIYAMGWDRQAPGKEAEFVAAIDFSGSSTYADSVKGRFTISRDNAKNTVYLQMNSLKPEDTAVYYCAAYQIYQYDGPYDYWGEGTQVTVSS”, the “polyreactivity (PSR sort gate)” value is on record as “low polyreactivity”.

As for “QVQLVESGGGLVQAGGSLRLSCAASGFTLGYNAMGWYRQAPGTERELVAAITRSGGSTYYADSVKGRFTISRDNAKNTVYLQMNSLKPEDTAVYYCNARSVYGSKQEEYWGQGTQVTVSS”, the “polyreactivity (PSR sort gate)” value is “high polyreactivity”.

Consider “QFQLVESGGGLVQAGGSLRLSCAASGSIFPNYAMGWYRQAPGKDRELVAVITQRGGRTYYADSVKGRFTISRDNAKNTVYLQMNSLKPEDTAVYYCAASYRGVPEYDSWGQGTQVTVSS”, for which the “polyreactivity (PSR sort gate)” value is recorded as “low polyreactivity”.

Turning to “QVQLVESGRGLVQAGVSLRLSCAASGPTFRGNVMGRYRKAPGKERELVAAINWTGSSTYYADSVKGGFTISRDNAKNTVYLQMNSLKPEDTAVDYCATRIGPHGGGLPRDYWGQGTQVTVSS”, the “polyreactivity (PSR sort gate)” value is “low polyreactivity”.

As for “QVQLVESGGGLVQAGGSLRLSCAASGRTLDHYAMGWYRQAPGKERELVAAITSSGGSTYYADSVKGRFTISRDNAKNTVYLQMNSLKPEETAVSYCAADVSSQREWIIEHDYWGQGTQVTVSS”, the “polyreactivity (PSR sort gate)” value is “low polyreactivity”.

In the case of “QVQLVESGGGLVQAGGSLRLSCAASGITFRYYAMGWYRQAPGKERELVAGISGRGGSTYYADSVKGRFTISRDNAKNTVYLQLNSLKPEDTAVYYCAKDRLWYRGYRWGYYYWGQGTQVTVSS”, the “polyreactivity (PSR sort gate)” value is listed as “high polyreactivity”.

As for “QVQLVESGGGLVQAGGSLRLSCAASGSTFGVNAMGWYRQAPGKERELVAIITSTTYADSVKGRFTISRDNAKNTVYLQMNSLKPEDTAVYYCAKDQERVTKGRFYLLEYYWGQGTQVTVSS”, the “polyreactivity (PSR sort gate)” value is on record as “low polyreactivity”.

Take “QVQLVESGGGLVQAGGSLRLSCAASGRIYYSNDMRWYRQAPGKERELVAAISRRDGSTYYADSVKGRFTISRDNAKNTVYLQMNSLKPEDTAVYYCRYYSYRYGYWGQGTQVTVSS”: the “polyreactivity (PSR sort gate)” value is reported as “high polyreactivity”.

On to “QVQLVESGGGLVQAGGSLRLSCAASGSIFRKNAMGWYRQAPGKERELVAAITGTGRTTYADSEKGRFTISRDNAKNTVYLQMNSLKPEDTAVYYCAADVNYYQHRLYYWGQGTQVSVSS”, for which the “polyreactivity (PSR sort gate)” value is reported as “low polyreactivity”.

“QVQLVESGGGLVQAGGSLRLSCAASGIIFTDNAMGWYRQAPGKERELVATISWSTDNTYYADSVKGRFTISRDNAKNTVYLQMNSLKPEDTAVYYCAAEEYYAYWYQYDYWGQGTQVTVSS”: the “polyreactivity (PSR sort gate)” value was “low polyreactivity”.

For “QVQLVESGGGLVQAGGSLRLSCSASGRTFVRNAMGWYRQAPGKERELVAAISSIGDSTYYADSVKGRFTISRDNAKNTVYLQMNSLKPEDTAVYYCNARGYVYYRMGYWGQGTQVTVSS”, the “polyreactivity (PSR sort gate)” value is given as “low polyreactivity”.

In the case of “QVQLVESGRRLVQAGGSLRLSCAASGRIFGAYARGWSRQAPGKEREMVAAITSRGGNTYYADSVKGRFTISRDNAKNTVYLQMNSLKPEDTAVYYCRYDIWVWWSGAYDYWGQGTQVTVSS”, the “polyreactivity (PSR sort gate)” value was “low polyreactivity”.

For the sequence “QVQLVESGGGLVQAGCSLRLSCAASGSTFRYYPMGWYRQAPGKEREFVAAITWRDGSTYYADSVKGRFTISRDNAKNTVYLQMNSLKPEDTAVYYCAARNSHVGYYDEYYYWGQGTQVTVSS”, the “polyreactivity (PSR sort gate)” value is listed as “low polyreactivity”.

Regarding “QVQLVESGGGLVQAGGSLRLSCAASGFTFGYYTMGWYRQAPGKERELVAAITWRGTTYYADSVKGRFTISRDNAKNTVYLQMNSLKPEDTAVYYCATVVLLRIWGGYWGQGTQVTVSS”, the “polyreactivity (PSR sort gate)” value is listed as “high polyreactivity”.

Take “QVQLVESGGGLVQAGGSLRLSCAASGSTFEYNSMGWYRQAPGKERELVGSSTNYADSVKGRFTISRDNAKNTVYLQMNSLLPEYTAVYYCAREQGVNRNHDYWGQGTQVTVSS”: the “polyreactivity (PSR sort gate)” value was “low polyreactivity”.

Consider “QVQLVESGGGLVQAGGSLRLSCAASGSTFHRYTMGWYRQAPGKERELVAAISSGGRTYYADSVKGRFTISRDNAKNTVYLQKNSLKPEDTAVYYCNSRYPRQYWGGYDYWGQGTQVTVSS”, for which the “polyreactivity (PSR sort gate)” value was “high polyreactivity”.

Turning to “QVQLVESWGGLVQAGGSLRLSCAASGFIFSRYAMGWYRQAPGKERELVAAISSRGGSTYYADSVKGRFTISRDNAKNTVYLQMNSLKPEDTAVYYCAKSSPTPHYYWGQGTQVTVSS”, the “polyreactivity (PSR sort gate)” value was “high polyreactivity”.

With “QVQLVESGGGLVQAGGSLRLSCAASGSTFWFYAMGWYRQAPGKERELVAVISNSGSTYYADSVKGRFTISRDNAKNTVYLQMNSLKPEDTAVYYCAAYAYQYRFSGYGYWGQGTQVTVSS”, the “polyreactivity (PSR sort gate)” value is recorded as “low polyreactivity”.

As to “QVQHVESGGGLVQAGGSLRLSCAASGYTYDPNAMGWYRQAPGKERELVAAISRIGGSTYYADSVKGRFRISRDNAKNTVYLQMNSLKREDTAVYYCAQEYYDGYFPTFDYDYWGQGTQVTVSS”, the “polyreactivity (PSR sort gate)” value was “low polyreactivity”.

As for “QDQLVESGGGLVQAGGSLRLSCAATGRIFKLYAMGWYRQAPGKERELVAAISSSGTRTYYADSVKGRFTISRDNAKNTVYLHMNSMKPEDTAVYYCAKRWPRKGNYPGSDYWGQGTQVTVSS”, the “polyreactivity (PSR sort gate)” value is reported as “high polyreactivity”.

As for “QVQLGDSGGGLVQAGGRLRLSCAASGRTIRPYTMGWYRQAPGNERALVAAITSGGGSTYYADSVKGRFTISRDNAKNTVTLQMHSLKPDDTAVYYCAAPRRERWIDVNQHYSWGQGTQVTVSS”, the “polyreactivity (PSR sort gate)” value is recorded as “low polyreactivity”.

For “QVQLVESGGGLVQAGGSLRLSCAASGSIFVLNAMGWYRQAPGKERELVAAITGTGDRTYYADSVKGRFTISRDNAKNTVYLQMNSLKPEDTAVYYCAATVGDAYYEYDYWGQGTQVTVSS”, the “polyreactivity (PSR sort gate)” value is recorded as “low polyreactivity”.

On to “QVQLVESGGGLVQAGGSLRLSCAASGNTFGGYAMGWYRQAPGKERELVAAIRYSGTSTYYADSVKGRFTISRDNAKNTVYLQMNSLKPEDTAVYYCAATYTRVPNRFYYWGQGTQVTVSS”, for which the “polyreactivity (PSR sort gate)” value was “high polyreactivity”.

For the sequence “QVQLVESGGGLVQAGGSLRLSCAASGIIFYYYAMGWYRPAPGKERELVAAITSSGVRTYYADSVKGRFTLSRDTAKNTVYLQMNSLKPEDTAVYYCAASVSWPRVSQRARYGYYYWGQGTQVTVSS”, the “polyreactivity (PSR sort gate)” value is listed as “high polyreactivity”.

For the sequence “QVQLVESGGGLVQAGGSLRLSCAASGSTLGRNAMGWYRQAPGKERELVAGIDGSAGSTYYADSVKGRFTISRDNAKNTVYLQMNSLKPEDTAVYYCNADVIDLDYDYWGQGTQVTVSS”, the “polyreactivity (PSR sort gate)” value is “low polyreactivity”.

On to “QVQLVESGGRLVQAGGSLRLSCAASGRTFYGYAMGWYRQAPGKEREFVAAISVGGGSTYYADSVKGRFTISRDKAKNTVYLQMNSLKPEDTAVYYCAAYTRYWSYGYWGQGTQVTVSS”, for which the “polyreactivity (PSR sort gate)” value is listed as “high polyreactivity”.

Regarding “QVQLVESGGGLLQAGGSLRLSCAASGSILDGNAMGWNRQAPGKERELVAAISYSGGSTYYADSVKGRFTISRDNAKNTVYLQIYSLKPEDTAVYYCAAGSISTPGRGVDKPDAYVYWGQGTQVTVSS”, the “polyreactivity (PSR sort gate)” value is on record as “low polyreactivity”.

In the case of “QVQLVESGGGLVQAGGSLRLSCAASGLTFRDNAMGWYRQAPGTERELVATMNSGGSTDYADSVKGRFTISRHNAKNTVYLQMNSLKPEDTAVYYCAVYREYYDRGWYSIFYWYDYWGQGTQVTVSS”, the “polyreactivity (PSR sort gate)” value is listed as “low polyreactivity”.

In the case of “QVHLVESGAGLVQAGGSLRLSCAASGSVFPVNAMGWYRQAPGKERELVAAISGSSGSTYYADSVKGRFTISRDNAKNTVYLQMNSLKPEDTAVYYCAKRGYGYGDGAYYYWGQGTQVTVSS”, the “polyreactivity (PSR sort gate)” value is “low polyreactivity”.

In the case of “QVQLVESGGALVQAGVSLRLSCSASGSTFTKYAIRWYRQAPGKERELVAAITRGGSTTYADSVKGRFTISRDNAKNTVYLQMNSLKPEDTAVYFCNAQYQSGYYTSYPERFDYRGQGTQVTVSS”, the “polyreactivity (PSR sort gate)” value is reported as “low polyreactivity”.

For the sequence “QVQLVESAAGLVQAGGSLRLSCAASGLNFASYGMGGYRQAPGKERELVAAISSSVGNTYYADSVKGRFTISRDYAKNTVYLQMNSLNPEDTAVYYCAAAKRSGYTGFKYYYWGQGTQVTVSS”, the “polyreactivity (PSR sort gate)” value is listed as “high polyreactivity”.

As to “QVQLVESGGGLVHAGGSLRLSCAASGRIFYKYAMAWYRQAPGKERELVAAISTRGGSTYYADSVKWRFTISRDNAKNTVYLQMNSLKPEDTAVYYCAALSAYGYDYWGQGTQVTVSS”, the “polyreactivity (PSR sort gate)” value was “high polyreactivity”.

As for “QVQLVESGGGIVQAGGSLRLSSAASGLTFAYNTMGWYRQAPGIEREFVASISSSGGNTYYADSVKGRFTISRDNAKNTVYLQMHSLKPEDTAVYYCAAKKKYHYVATYKRFENWGQGTHVTVSS”, the “polyreactivity (PSR sort gate)” value is given as “low polyreactivity”.

Regarding “QVQLVESGGGLVQAGGSLRLSCAASGSTFSGYAMGWYRQAPGKERELVAAISWSGGRTYYADSVKGRFTISRDNAKNTVYLQMNSLKPEDTAVYYCAAVRKSAYEYWGQGTQVTVSS”, the “polyreactivity (PSR sort gate)” value is listed as “high polyreactivity”.

Turning to “QVQLVESGGGLVEAGGSLRLSCAASGSIFSYNAMGWYRQAPGKERELVAAITDGGDRTYYADSVKGRFTISRDNAKNTVYLLMNSLIPEATAVYYCAAELYSYREDYGAHFAYEYWGQGTQVTVSS”, the “polyreactivity (PSR sort gate)” value is listed as “low polyreactivity”.

On to “QVQLVESGGGLVQAGGSLRLSCAASGSIFNSNAMGWYRQAPGKERELVAAITGSGGRTYYADSVKGRFTISRDNAKNTVYLQMNSLKPEDTAVYYCNAVTYSRRYAYYDWGQGTQVTVSS”, for which the “polyreactivity (PSR sort gate)” value is “high polyreactivity”.
